According to PMC6351639, “Synergistic effect of acetyl xylan esterase from Talaromyces leycettanus JCM12802 and xylanase from Neocallimastix patriciarum achieved by introducing carbohydrate-binding module-1” (AMB Express, 2019):

Substrate: CC(=O)Oc1ccc([N+](=O)[O-])cc1
Assay: purified protein
Format: biochemical, Evansstolkia leycettana
Conditions: optimal conditions, 55 °C, 20 mM citric acid-Na2HPO4 pH 6.0 (standard assay), free enzyme

Protein	Km [mM]	Vmax [µmol/min/mg]	kcat [s⁻¹]	kcat/Km [M⁻¹ s⁻¹]
AXE + CBM1 (Evansstolkia leycettana) (protein, mature full-length: hydrolase domain 20-309, S/T-rich linker 310-342, CBM1 343-380; signal peptide removed; no tag stated; pPIC9, secreted from Pichia pastoris GS115) VAVDHDGARLARRITRGSLQQVTNFGSNPTNVGMYIYVPNNLATNPGIVVAIHYCTGSAQAYYSGSPYAQLAEQYGFIVIYPSSPYSGTCWDVSSQAALTHNGGGDSNSIANMVTWTISQFNADTSKVFVTGSSSGAMMTNVMAATYPELFAAATVYSGVPAGCFVSSTNQVDAWNSSCAQGQVIDTPAQWASVAENMYPGYTGPRPRMQIYHGSVDTTLYPQNYYETCKQWAGVFGYNYDSPQQTINNDPEANYQTTIWGPNLQGIFATGVGHTVPIHGTQDMEWFGFAGESTGGGTTTTSATTTTTSKPTSTTSSGGSTSTAVAQHWGQCGGIGWTGPTTCVSPYTCTFVNDYYYQCL	0.5 ± 0.02	455	306 ± 9	612000 ± 12000
AXE (Evansstolkia leycettana) (protein, hydrolase domain only, linker and CBM1 (310-380) removed; signal peptide removed; no tag stated; pPIC9, secreted from Pichia pastoris GS115) VAVDHDGARLARRITRGSLQQVTNFGSNPTNVGMYIYVPNNLATNPGIVVAIHYCTGSAQAYYSGSPYAQLAEQYGFIVIYPSSPYSGTCWDVSSQAALTHNGGGDSNSIANMVTWTISQFNADTSKVFVTGSSSGAMMTNVMAATYPELFAAATVYSGVPAGCFVSSTNQVDAWNSSCAQGQVIDTPAQWASVAENMYPGYTGPRPRMQIYHGSVDTTLYPQNYYETCKQWAGVFGYNYDSPQQTINNDPEANYQTTIWGPNLQGIFATGVGHTVPIHGTQDMEWFGFA	0.72 ± 0.03	625	326 ± 17	453000 ± 18000
